Data published in patent US20090253131A1, “HYBRID FUSION REPORTER AND USES THEREOF” (Promega Corporation, priority 2007, published 2009).
Read-outs that look alike come from different tables or passages of the source. One block for each substance: values may come before it.

Experiments:
Test in all cases: cell-based or functional assay
[1] = target: hRL (92-311)-FKBP (Renilla) (UniProt P27652)
[2] = target: hRL (92-311)-FKBP (Renilla) (UniProt P27652); remark: listed apart in the source
[3] = target: FKBP-hRL (112-311) (Renilla) (UniProt P62942)
FKBP-hRL (112-311) (Renilla), sequence (P62942 other isoform, or with tags, fused parts or gaps): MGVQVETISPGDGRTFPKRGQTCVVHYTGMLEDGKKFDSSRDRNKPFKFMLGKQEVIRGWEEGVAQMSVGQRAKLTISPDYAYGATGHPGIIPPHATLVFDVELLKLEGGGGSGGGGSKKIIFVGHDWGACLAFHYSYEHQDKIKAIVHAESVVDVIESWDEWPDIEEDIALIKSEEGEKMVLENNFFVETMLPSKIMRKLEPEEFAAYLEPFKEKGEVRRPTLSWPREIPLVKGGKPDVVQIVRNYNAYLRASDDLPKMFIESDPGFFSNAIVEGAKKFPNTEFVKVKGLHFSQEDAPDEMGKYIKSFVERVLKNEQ

[4] = target: hRL (112-311)-FKBP (Renilla) (UniProt P27652)
hRL (112-311)-FKBP (Renilla), sequence (P27652 other isoform, or with tags, fused parts or gaps): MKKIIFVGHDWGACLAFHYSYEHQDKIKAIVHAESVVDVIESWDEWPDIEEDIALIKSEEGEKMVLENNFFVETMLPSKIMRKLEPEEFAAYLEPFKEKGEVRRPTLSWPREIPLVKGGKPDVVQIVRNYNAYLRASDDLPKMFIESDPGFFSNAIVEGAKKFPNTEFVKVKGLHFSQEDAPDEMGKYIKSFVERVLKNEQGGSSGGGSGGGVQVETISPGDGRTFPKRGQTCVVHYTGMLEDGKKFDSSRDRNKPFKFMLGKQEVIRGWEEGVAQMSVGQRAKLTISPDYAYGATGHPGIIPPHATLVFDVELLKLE

[5] = target: hRL (112-311)-FKBP (Renilla) (UniProt P27652); remark: listed apart in the source
[6] = target: Rluc8 (92-311)-FKBP (Renilla) (UniProt P27652)
Rluc8 (92-311)-FKBP (Renilla), sequence (P27652 other isoform, or with tags, fused parts or gaps): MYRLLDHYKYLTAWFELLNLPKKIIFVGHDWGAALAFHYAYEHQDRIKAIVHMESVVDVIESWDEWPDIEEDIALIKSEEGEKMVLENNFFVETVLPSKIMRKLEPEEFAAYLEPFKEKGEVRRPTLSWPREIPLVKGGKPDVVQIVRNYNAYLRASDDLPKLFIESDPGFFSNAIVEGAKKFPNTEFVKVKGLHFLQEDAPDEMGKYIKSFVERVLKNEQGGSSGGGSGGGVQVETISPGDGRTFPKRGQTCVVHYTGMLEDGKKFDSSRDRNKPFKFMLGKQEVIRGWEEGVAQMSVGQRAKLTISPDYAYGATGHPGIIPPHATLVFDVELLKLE

[7] = target: Rluc8 (112-311)-FKBP (Renilla) (UniProt P27652)
Rluc8 (112-311)-FKBP (Renilla), sequence (P27652 other isoform, or with tags, fused parts or gaps): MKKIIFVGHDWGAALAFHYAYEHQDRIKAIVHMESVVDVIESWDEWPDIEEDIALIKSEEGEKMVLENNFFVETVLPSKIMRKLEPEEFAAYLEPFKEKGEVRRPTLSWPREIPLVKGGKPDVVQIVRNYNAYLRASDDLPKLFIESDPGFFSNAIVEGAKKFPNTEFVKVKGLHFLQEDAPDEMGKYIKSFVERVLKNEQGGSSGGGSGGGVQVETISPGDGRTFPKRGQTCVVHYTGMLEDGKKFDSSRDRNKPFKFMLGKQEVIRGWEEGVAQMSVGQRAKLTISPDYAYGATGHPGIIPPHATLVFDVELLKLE

[8] = target: FKBP-hRL (92-311) (Renilla) (UniProt P62942)
FKBP-hRL (92-311) (Renilla), sequence (P62942 other isoform, or with tags, fused parts or gaps): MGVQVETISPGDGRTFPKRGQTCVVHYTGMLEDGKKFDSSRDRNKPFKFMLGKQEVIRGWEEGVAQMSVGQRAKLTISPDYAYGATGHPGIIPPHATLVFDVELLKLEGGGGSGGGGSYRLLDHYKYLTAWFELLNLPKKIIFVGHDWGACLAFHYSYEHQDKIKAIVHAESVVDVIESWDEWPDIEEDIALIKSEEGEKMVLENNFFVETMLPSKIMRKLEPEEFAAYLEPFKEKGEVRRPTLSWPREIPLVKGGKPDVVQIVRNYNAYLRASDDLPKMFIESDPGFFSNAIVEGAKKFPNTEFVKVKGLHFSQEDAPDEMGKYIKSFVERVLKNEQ

[9] = target: FKBP-hRL (92-311) (Renilla) (UniProt P62942); remark: listed apart in the source
[10] = target: FKBP-hRL (112-311) (Renilla) (UniProt P62942); remark: listed apart in the source

hRL (1-111)-FRB, sequence (P27652 other isoform, or with tags, fused parts or gaps): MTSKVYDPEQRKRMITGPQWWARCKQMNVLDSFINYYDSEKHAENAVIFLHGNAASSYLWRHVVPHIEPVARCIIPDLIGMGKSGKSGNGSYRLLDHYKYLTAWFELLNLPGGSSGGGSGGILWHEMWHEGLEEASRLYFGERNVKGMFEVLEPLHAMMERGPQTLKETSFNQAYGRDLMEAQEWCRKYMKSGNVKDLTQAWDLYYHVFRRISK
hRL (1-91)-FRB, sequence (P27652 other isoform, or with tags, fused parts or gaps): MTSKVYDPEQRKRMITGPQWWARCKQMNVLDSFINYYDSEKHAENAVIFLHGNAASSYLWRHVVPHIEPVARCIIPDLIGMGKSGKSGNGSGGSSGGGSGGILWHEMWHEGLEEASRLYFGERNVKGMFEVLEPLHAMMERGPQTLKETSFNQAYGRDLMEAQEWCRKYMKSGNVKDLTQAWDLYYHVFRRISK
hRL (92-311)-FKBP (Renilla), sequence (P27652 other isoform, or with tags, fused parts or gaps): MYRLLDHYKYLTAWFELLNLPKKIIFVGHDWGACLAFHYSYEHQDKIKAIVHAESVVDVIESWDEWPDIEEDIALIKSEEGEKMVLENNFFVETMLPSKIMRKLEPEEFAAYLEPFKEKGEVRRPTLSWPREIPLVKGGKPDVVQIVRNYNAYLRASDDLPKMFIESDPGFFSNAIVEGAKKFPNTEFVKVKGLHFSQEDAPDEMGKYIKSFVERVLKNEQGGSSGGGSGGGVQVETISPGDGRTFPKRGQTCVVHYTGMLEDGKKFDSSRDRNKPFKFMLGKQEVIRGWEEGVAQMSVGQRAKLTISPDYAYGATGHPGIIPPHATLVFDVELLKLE
Rluc8 (1-111)-FRB, sequence (P27652 other isoform, or with tags, fused parts or gaps): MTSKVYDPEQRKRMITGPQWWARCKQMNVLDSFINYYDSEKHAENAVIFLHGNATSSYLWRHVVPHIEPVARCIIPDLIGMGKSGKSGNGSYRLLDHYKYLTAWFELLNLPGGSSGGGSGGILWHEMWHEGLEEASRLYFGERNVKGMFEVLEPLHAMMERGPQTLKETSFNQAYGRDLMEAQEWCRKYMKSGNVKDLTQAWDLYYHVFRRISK
Rluc8 (1-91)-FRB, sequence (P27652 other isoform, or with tags, fused parts or gaps): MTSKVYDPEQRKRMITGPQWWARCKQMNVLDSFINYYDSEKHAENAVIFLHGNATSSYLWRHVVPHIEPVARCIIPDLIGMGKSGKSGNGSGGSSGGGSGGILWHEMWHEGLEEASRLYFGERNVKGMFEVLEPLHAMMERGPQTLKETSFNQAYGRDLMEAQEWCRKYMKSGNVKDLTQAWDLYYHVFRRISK

Renilla luciferase activity, +rapamycin against no rapamycin [1]: 134 fold
Renilla luciferase activity, +rapamycin against no rapamycin [2]: 10.4 fold
Substance: FRB-hRL (1-91) (from UniProt P42345 2021-2113; P27652 1-91)

Renilla luciferase activity, +rapamycin against no rapamycin [3]: 5.3 fold
Renilla luciferase activity, +rapamycin against no rapamycin [4]: 46 fold
Renilla luciferase activity, +rapamycin against no rapamycin [5]: 51 fold
Substance: FRB-hRL (1-111) (from UniProt P42345 2021-2113; P27652 1-111)

Renilla luciferase activity, +rapamycin against no rapamycin [6]: 4 fold
Substance: Rluc8 (1-91)-FRB (from UniProt P27652 1-91; P42345 2021-2113)

Renilla luciferase activity, +rapamycin against no rapamycin [7]: 17 fold
Substance: Rluc8 (1-111)-FRB (from UniProt P27652 1-111; P42345 2021-2113)

Renilla luciferase activity, +rapamycin against no rapamycin [8]: 8.6 fold
Renilla luciferase activity, +rapamycin against no rapamycin [9]: 13.5 fold
Substance: hRL (1-91)-FRB (from UniProt P27652 1-91; P42345 2021-2113)

Renilla luciferase activity, +rapamycin against no rapamycin [3]: 81 fold
Renilla luciferase activity, +rapamycin against no rapamycin [10]: 114 fold
Substance: hRL (1-111)-FRB (from UniProt P27652 1-111; P42345 2021-2113)
